Test results published in patent publication US10487307B2, “Culture method for pluripotent stem cells” (FUJIFILM CORPORATION, priority 2013, dated 2019).

Columns and labels:
[1] = Evaluation of adsorbability with respect to cell culture surface (OPA fluorescence); assay type: physicochemical; conditions: FIG. 1; for adsorbability with respect to the plate: 0 to 200 pmol/cm^2 added, 2 hours at 37° C., washed twice with PBS
Experimental: Each of the polypeptides of RCP-1 to RCP-11 and RCP-21 to RCP-26 obtained as above was diluted with a predetermined buffer such that they could be added to wells at a predetermined final concentration of 0 pmol/cm^2 to 200 pmol/cm^2. Thereafter, each of the polypeptides was added in an amount of 64 μL to a plasma-treated 96-well plate made of polystyrene (Tissue Culture-Treated, Falcon). Each of the polypeptides was allowed to adsorb onto the plate by being incubated for 2 hours at 37° C., and then the wells were washed twice with PBS, thereby obtaining surfaces coated with each of the polypeptides of RCP-1 to RCP-11 and RCP-21 to RCP-26.
Among the surfaces coated with each of the polypeptides obtained as above, the surfaces coated with RCP-1 and RCP-21 to RCP-26 were applied with 64 μL of a borate buffer and 64 μL of 1 N NaOH, followed by incubation for 24 hours at 80° C. and 100% humidity. After the resultant was air-cooled, 75 μL of a borate buffer was added to each well, and 50 μL of a reaction solution obtained by mixing OPA (o-phthalaldehyde: Wako Pure Chemical Industries, Ltd./methanol solution (160 mg/ml)) with N-acetyl-L-cysteine (NAC: Wako Pure Chemical Industries, Ltd.)/borate buffer solution (2 mg/ml) at a ratio of 1:100 (mass ratio) was further added thereto. After incubation for 30 minutes at 40° C., the fluorescence intensity thereof was measured by using an Envision Multilabel Counter (PerkinElmer Inc.) (excitation 355 nm/fluorescence 486 nm). A calibration curve was separately prepared from each of the polypeptide solutions so as to calculate the amount of the polypeptide adsorbed. In FIG. 1, a black rhombus indicates RCP-1, a black square indicates RCP-21, a black triangle indicates RCP-22, a black circle indicates RCP-23, a white rhombus indicates RCP-24, a white square indicates RCP-25, and a white triangle indicates RCP-26.

human iPS cells ("Tic") = assay: Cell adhesiveness evaluation 1 (ALP activity of adhesive iPS cells); assay type: cell-based; conditions: 30,000 cells/well, 24 hours, n=3
Experimental: The cell adhesiveness of human iPS cells (“Tic”: Cell No. JCRB 1331: from National Institute of Biomedical Innovation. [567-0085, 7-6-8 Asagi Saito Ibaraki-City Osaka]) with respect to the aforementioned polypeptides was evaluated in the following manner.
As feeder cells for retaining the human iPS cells, EmbryoMax (registered trademark) (early mouse embryonic fibroblasts: resistant to hygromycin, treated with mitomycin C, derived from C57/BL6, third passage) (Millipore Corporation) was used. By using DMEM (Invitrogen) and a 10% (v/v) fetal bovine serum medium, the feeder cells were cultured for 24 hours and attached to a T25 flask (Corning Incorporated). As a medium for the human iPS cells, the one obtained by adding FGF-2 (Sigma-Aldrich Co, LLC.) to a medium composed as shown in Table 6 at a final concentration of 10 ng/ml was used.
By using the aforementioned medium, the human iPS cells were retained and cultured in a 5% (v/v, the same unit will be used hereinafter) CO2 incubator at 37° C. Except for the day after the seeding of the iPS cells, the medium was replaced every day. The subculture operation was performed by exfoliating the cells by using Dispase II (neutral protease Grade II, Roche) and separating the cells in an appropriate size by a pipetting operation.
The iPS cells cultured as described above were treated with TrypLE Select (Invitrogen) for 5 minutes at 37° C. and separated into a single cell. After being subjected to centrifugation for 2 minutes at 300 rpm, the cells were collected and suspended in TeSR2 (a medium not containing a heterogeneous animal-derived component and a serum component, STEMCELL Technologies.) containing Y-27362 ((R)-(+)-trans-N-(4-pyridyl)-4-(1-aminoethyl)-cyclohexane carboxamide.2HCl.H2O, an Rho binding kinase inhibitor, Wako Pure Chemical Industries, Ltd.) at a final concentration of 10 μM.
Each of RCP-1 to RCP-11, RCP-21, RCP-25, and RCP-26 as control, human vitronectin (extracted from human serum, BD Biosciences), and recombinant laminin (rLaminin-5: Oriental Yeast Co., ltd. and Human Recombinant Laminin-511: BIOLAMINA AB) was added to and suspended in a predetermined buffer (a dialysis buffer used in <GRAVY value and aggregation characteristics> described above for RCP-1 to RCP-11, and PBS for RCP-21, RCP-25, human vitronectin, and recombinant laminin) at the concentration shown in Table 7, thereby preparing samples 1 to 17. The samples were added to the respective wells of a 96-well plate and adsorbed onto the plate by being held for 2 hours at 37° C.
Into the respective wells of the 96-well plate treated with the peptides, iPS cells were seeded at a cell density of 30,000 cells/well. After the cells were cultured for 24 hours, the nonadhesive cells were washed off with PBS, and only the adhesive cells were immobilized by using 4% (v/v) paraformaldehyde (Wako Pure Chemical Industries, Ltd.). By using an Attophos (registered trademark) AP Fluorescent Substrate System (Promega Corporation), the ALP activity was calculated, and from the calibration curve, the number of undifferentiated iPS cells having the ALP activity was calculated. In Table 7, the cell adhesion rate is expressed as a ratio calculated by regarding the cell adhesion rate obtained from the sample 15 using natural vitronectin as being 100%. n=3.

iPS cells [2] = assay: Cell adhesiveness evaluation 3 (RCP-1 added amount); assay type: cell-based, human; conditions: added amount 130 pmol/cm^2; this surface = 100%; n=3
Experimental: The cell adhesiveness was evaluated in the same manner as in <Cell adhesiveness evaluation 1>, except that RCP-1 was used after the concentration thereof was adjusted to 125 pmol/cm^2 to 1,000 pmol/cm^2 by using PBS. In Table 10, the cell adhesion rate is expressed as a ratio calculated by regarding a cell adhesion rate with respect to the cell culture surface, onto which natural vitronectin is adsorbed at a concentration of 130 pmol/cm^2, as being 100%. n=3.

iPS cells [3] = assay: Evaluation of maintenance of undifferentiated state (reference examples); assay type: cell-based, human
Experimental: iPS cells collected in the same manner as in <Cell adhesiveness evaluation 1> were suspended in TeSR2. The iPS cells were seeded into 6-well plate (Tissue culture-treated, Falcon), onto which each of the samples 1, 2, 5, 6, and 7 used in <Cell adhesiveness evaluation 1> was adsorbed in the same manner as in <Cell adhesiveness evaluation 1>, and cultured in a CO2 incubator at 37° C. Except for the day after the seeding, the medium was replaced every day. In the same method as described above, the cells were subcultured every six days.
After being cultured for 1 month under the conditions described above, the cells were immobilized using 4% paraformaldehyde and treated with 1% Triton-X/PBS so as to enhance the membrane permeability. After the cells were subjected to a blocking treatment using an Image IT Signal Enhancer (Invitrogen), an anti-human NANOG antibody (AF 1997, R&D Systems, Inc.), an Alexa Fluor 555 binding rabbit anti-goat IgG antibody (Invitrogen), and DAPI (4′,6-diamidino-2-phenylindole, Dojindo Molecular Technologies, Inc.) were added thereto for labeling, and the cells were imaged using a fluorescence microscope.
FIGS. 3A and 4A show the iPS cells cultured on RCP-1; FIGS. 3B and 4B show the iPS cells cultured on RCP-11; FIGS. 3C and 4C show the iPS cells cultured on natural human vitronectin; FIGS. 3D and 4D show the iPS cells cultured on rLaminin-5; and FIGS. 3E and 4E show the iPS cells cultured on rLaminin-511. The scale bar in the images indicates […]. In FIGS. 3A to 3E, the images on the left side are full images of the colony, and the images on the right side are magnified images. In FIGS. 4A to 4E, the images on the left side are images of the cells stained with DAPI, and the images on the right side are images of the cells stained with an anti-NANOG antibody. The scale bar in FIGS. 3A to 4E indicates 200 μm.

[4] = added amount 200 pmol/cm^2, natural vitronectin (sample 15) = 100%

| Molecule | amount adsorbed onto the plate as fraction of the amount of polypeptides containing SEQ ID NO: 2 [1] | adsorbability with respect to the plate [1] | Cell adhesion rate (%) (human iPS cells ("Tic"); [4]) | also measured |
| --- | --- | --- | --- | --- |
| RCP-24: comparative polypeptide, SEQ ID NO: 29; vitronectin positions 1-55 (GPLGDQESCKGRCTEGFNVDKKCQCDELCSYYQSCCTDYTAECKPQVTRGDVFTMPEDE; Vitronectin-derived Recombinant Protein (RCP-24)) [reference compound] | about ¼ | – | – | – |
| RCP-26: comparative polypeptide, SEQ ID NO: 31; vitronectin positions 269-459 (protein, Vitronectin-derived Recombinant Protein (RCP-26)) GPLGPSQEECEGSSLSAVFEHFAMMQRDSWEDIFELLFWGRTSAGTRQPQFISRDWHGVPGQVDAAMAGRIYISGMAPRPSLAKKQRFRHRNRKGYRSQRGHSRGRNQNSRRPSRATWLSLFSSEESNLGANNYDDYRMDWLVPATCEPIQSVFFFSGDKYYRVNLRTRRVDTVDPPYPRSIAQYWLGCPAPGHL | – | excellent adsorbability | 9.4 ± 2.9% | – |
| Natural vitronectin: human vitronectin (extracted from human serum, BD Biosciences) (protein, listed as Homo sapiens, glycosylated) DQESCKGRCTEGFNVDKKCQCDELCSYYQSCCTDYTAECKPQVTRGDVFTMPEDEYTVYDDGEEKNNATVHEQVGGPSLTSDLQAQSKGNPEQTPVLKPEEEAPAPEVGASKPEGIDSRPETLHPGRPQPPAEEELCSGKPFDAFTDLKNGSLFAFRGQYCYELDEKAVRPGYPKLIRDVWGIEGPIDAAFTRINCQGKTYLFKGSQYWRFEDGVLDPDYPRNISDGFDGIPDNVDAALALPAHSYSGRERVYFFKGKQYWEYQFQHQPSQEECEGSSLSAVFEHFAMMQRDSWEDIFELLFWGRTSAGTRQPQFISRDWHGVPGQVDAAMAGRIYISGMAPRPSLAKKQRFRHRNRKGYRSQRGHSRGRNQNSRRPSRATWLSLFSSEESNLGANNYDDYRMDWLVPATCEPIQSVFFFSGDKYYRVNLRTRRVDTVDPPYPRSIAQYWLGCPAPGHL | – | – | – | Cell adhesion rate (%) (human iPS cells ("Tic"); added amount 130 pmol/cm^2, this sample = 100%): 100 ± 5.5%; Cell adhesion rate (%) (iPS cells [2]): 100 ± 5.5%; form of iPS cell colony (iPS cells [3]; TeSR2, subcultured every six days, FIGS. 3A to 3E): form specific to undifferentiated cells; NANOG expression (iPS cells [3]; cultured for 1 month in TeSR2, anti-NANOG staining, FIGS. 4A to 4E): strongly expressed NANOG in the entirety of the colony |
| RCP-23: comparative polypeptide, SEQ ID NO: 28; vitronectin positions 1-55, 56-129 (protein, Vitronectin-derived Recombinant Protein (RCP-23)) GPLGDQESCKGRCTEGFNVDKKCQCDELCSYYQSCCTDYTAECKPQVTRGDVFTMPEDEYTVYDDGEEKNNATVHEQVGGPSLTSDLQAQSKGNPEQTPVLKPEEEAPAPEVGASKPEGIDSRPETLHPGRPQP | about ¼ | – | – | – |
| RCP-25: comparative polypeptide, SEQ ID NO: 30; vitronectin positions 56-459 (protein, Vitronectin-derived Recombinant Protein (RCP-25)) GPLGYTVYDDGEEKNNATVHEQVGGPSLTSDLQAQSKGNPEQTPVLKPEEEAPAPEVGASKPEGIDSRPETLHPGRPQPPAEEELCSGKPFDAFTDLKNGSLFAFRGQYCYELDEKAVRPGYPKLIRDVWGIEGPIDAAFTRINCQGKTYLFKGSQYWRFEDGVLDPDYPRNISDGFDGIPDNVDAALALPAHSYSGRERVYFFKGKQYWEYQFQHQPSQEECEGSSLSAVFEHFAMMQRDSWEDIFELLFWGRTSAGTRQPQFISRDWHGVPGQVDAAMAGRIYISGMAPRPSLAKKQRFRHRNRKGYRSQRGHSRGRNQNSRRPSRATWLSLFSSEESNLGANNYDDYRMDWLVPATCEPIQSVFFFSGDKYYRVNLRTRRVDTVDPPYPRSIAQYWLGCPAPGHL | – | excellent adsorbability | 13.2 ± 3.4% | – |
